Test results published in US20140018288A1, “X-DING-CD4 Peptide” (priority 2012, published 2014).
Where two headings read alike, the source gives them in different places.

System: HIV-1 LTR promoter
Assay: Rapid Suppression Assay (RSA), PMA-induced HIV-1 LTR-driven luciferase in 1G5 cells
Assay type: cell-based
Conditions: RSA; for IC50: PMA 5 ng/ml, read-out: IC50, HIV-1 LTR promoter inhibition
Description: We applied the cell based Rapid Suppression Assay (RSA) for testing X-DING-CD4-induced inhibition of HIV-1 LTR promoter (Lesner et al., 2004; Lesner et al., 2005). Briefly, 1 G5 cells (obtained through the NIH AIDS Research and Reagent Program, Division of AIDS, NIAID, NIH) that are stably transfected with an inducible luciferase gene driven by HIV-1 LTR (Aguilar-Cordova et al., 1994) were washed in PBS, resuspended in hybridoma medium to concentration of 5×10^6cells/ml. For purpose of generating control titration curves, 100 μl aliquots of 1G5 cells were mixed with 100 μl cell culture medium either supplemented with various amount of rX-DING-CD4^pep (SEQ ID No: 1) or no rX-DING-CD4^pep, and incubated for three hours at 37° C. Subsequently, all cells were induced with phorbol 12-myristate 13-acetate (PMA) at a concentration of 5 ng/ml. Two control tubes containing 1G5 cells without rX-DING-CD4^pep treatment were resuspended in hybridoma medium with or without PMA. Three hours later cells were collected by centrifugation and lysed in the same tubes using Reporter Lysis buffer (Promega). The expression levels of luciferase protein in the lysates were determined according to the manufacturer's protocol. The X-DING-CD4^pep inhibition values were established based on the formula: [(LUC1-LUC0)×100/Z]−100; where LUC1 is the value obtained from cells induced by PMA and treated with a specific dilution of X-DING-CD4^pep; and LUC0 is the basal value obtained from the uninduced and untreated cells; Z is the absolute luciferase induction by PMA calculated as Z=LUCmax-LUCO3 where LUCmax is the value of 100% luciferase expression in PMA induced X-DING-CD4^pep untreated cells.
One aspect of the present invention is related to X-DING-CD4 peptide derivatives. Here we obtained 15 derivatives SED ID NOS: 1-15 by recombination or in vitro synthesis. We tested the biological activity of some these derivatives by rapid suppression assay (RSA). In XD-4M, the third amino acid glycine in the native X-DING-CD4 peptide was substituted with the polar amino acid glutamine. In XD-7, the two amino acids, cysteine and valine, replaced the three amino acids, glycine, serine and aspartic acid, in the native X-DING-CD4 peptide. In XD-12 and XD-12sh, the 69th amino acid glutamic acid in the native X-DING-CD4 peptide was methylated. In XD-9, the 69th amino acid glutamic acid in the native X-DING-CD4 peptide was substituted with the amino acid glutamine. The RSA procedure was similar to that described in Example 2. The inhibitory values are plotted in FIG. 5.
We performed the rapid suppression assay (RSA) which tests directly the inhibition of HIV-1 transcription (similar to the procedure described in Example 2), the MAGI assay which tests the inhibition of HIV-1 replication in a single cycle infection (similar to the procedure described in Example 2), and the HIV-1 infection inhibition assay in human PBLs.

[1] = 1G5 cells, listed as rX-DING-CD4

B1: MADINGGGATLPQPLYQTSGVLTAGFAPYIGVGSGKGKLAFLNNDYSQFGTGTKNVHWAGSDSKLTSTELSTYASTKQAAWGKLIQVPSVATSVAIPFNKAGSNAVDLSVDQLCGVFSGRITTWNQ (protein, listed as Homo sapiens)
chain: MADINGGGATLPQPLYQTSGVLTAGFAPYIGVGSGKGKLAFLNNDYSQFGTGTKNVHWAGSDSKLTSTELSTYASTKQAAWGKLIQVPSVATSVAIPFNKAGSNAVDLSVDQLCGVFSGRITTWNQ
  concentration achieving inhibition of 90% HIV-1 LTR transcription: 115.1 nM
1G5 cells
  IC95, HIV-1 LTR promoter inhibition, mass concentration: 1.52 µg/mL
  IC95, inhibitory dose blocking 95% transcription events: about 115.1 nM
  IC50: ~8.18 nM
[1]
  IC50: 8.2 nM
  IC95, HIV-1 LTR promoter inhibition, mass concentration: (1.514 μg/ml)
Table 1
  IC50, HIV-1 LTR promoter inhibition, mass concentration: (0.107 ug/ml)
  IC95, HIV-1 LTR promoter inhibition: 116 nM
